This note sets out measurements from article PMC3170320, “Minimal Antizyme Peptide Fully Functioning in the Binding and Inhibition of Ornithine Decarboxylase and Antizyme Inhibitor” (PLoS ONE, 2011).

B2: human ornithine decarboxylase, wild type (enzyme, UniProt P11926 1-461, looked up)
chain: MNNFGNEEFDCHFLDEGFTAKDILDQKINEVSSSDDKDAFYVADLGDILKKHLRWLKALPRVTPFYAVKCNDSKAIVKTLAATGTGFDCASKTEIQLVQSLGVPPERIIYANPCKQVSQIKYAANNGVQMMTFDSEVELMKVARAHPKAKLVLRIATDDSKAVCRLSVKFGATLRTSRLLLERAKELNIDVVGVSFHVGSGCTDPETFVQAISDARCVFDMGAEVGFSMYLLDIGGGFPGSEDVKLKFEEITGVINPALDKYFPSDSGVRIIAEPGRYYVASAFTLAVNIIAKKIVLKEQTGSDDEDESSEQTFMYYVNDGVYGSFNCILYDHAHVKPLLQKRPKPDEKYYSSSIWGPTCDGLDRIVERCDLPEMHVGDWMLFENMGAYTVAAASTFNGFQRPTIYYVMSGPAWQLMQQFQNPDFPPEVEEQDASTLPVSCAWESGMKRHRAACASASINV
notes: ornithine decarboxylase (ODC, EC 4.1.1.17), human, wild type; Kd was fitted with an A+B to AB model; also called ODC

Series [1] has as its target T1, human antizyme inhibitor, wild type (human, UniProt O14977 1-448).
T1 sequence (looked up): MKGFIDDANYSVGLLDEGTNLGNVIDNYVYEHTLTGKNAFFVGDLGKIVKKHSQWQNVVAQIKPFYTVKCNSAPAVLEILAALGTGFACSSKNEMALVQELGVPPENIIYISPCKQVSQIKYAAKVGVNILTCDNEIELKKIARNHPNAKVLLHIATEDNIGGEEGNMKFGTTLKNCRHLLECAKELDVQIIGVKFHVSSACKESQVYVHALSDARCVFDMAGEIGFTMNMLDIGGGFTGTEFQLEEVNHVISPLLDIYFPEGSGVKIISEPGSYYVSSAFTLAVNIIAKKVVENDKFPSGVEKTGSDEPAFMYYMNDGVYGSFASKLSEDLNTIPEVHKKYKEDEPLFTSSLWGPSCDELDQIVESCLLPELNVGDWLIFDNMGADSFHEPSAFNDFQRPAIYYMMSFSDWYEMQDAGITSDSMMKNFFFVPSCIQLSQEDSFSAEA
The series can be described thus: cell-based or functional assay.

The target in series [2] is B2. The series can be described thus: cell-based or functional assay.
For series [3], the target named is B2. The series can be described thus: AUC; sedimentation velocity, 42,000 rpm, 20°C; ODC fixed at 0.3 mg/mL, AZ or AZ peptide 0.015 to 0.2 mg/mL (molar ratio AZ/ODC 0.12 to 2); 30 mM Tris-HCl pH 7.4, 25 mM NaCl; global fit to the A+B to AB hetero-association model in SEDPHAT. The note with it: both partners purified.
In series [4] the target is T1, human antizyme inhibitor, wild type. The series can be described thus: AUC; sedimentation velocity, 20°C; AZI fixed at 0.3 mg/mL, AZ or AZ peptide 0.05 to 0.24 mg/mL (molar ratio AZ/AZI 0.4 to 2.4); 30 mM Tris-HCl pH 7.4, 25 mM NaCl; global fit to the A+B to AB hetero-association model in SEDPHAT. The following applies: both partners purified.
Series [5] deals with the molecule itself. The series can be described thus: AUC; sedimentation velocity, 42,000 rpm, 20°C; ODC fixed at 0.3 mg/mL, AZ or AZ peptide 0.015 to 0.2 mg/mL (molar ratio AZ/ODC 0.12 to 2); 30 mM Tris-HCl pH 7.4, 25 mM NaCl; global fit to the A+B to AB hetero-association model in SEDPHAT.

B1: human antizyme peptide AZ_95-228 (domain or fragment)
chain: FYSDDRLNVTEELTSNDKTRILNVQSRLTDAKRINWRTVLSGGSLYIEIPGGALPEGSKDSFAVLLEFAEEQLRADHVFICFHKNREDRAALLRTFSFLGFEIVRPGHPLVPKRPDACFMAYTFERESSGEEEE
Regarding B1, the “IC50 of inhibition of ODC enzyme activity with ODC pre-incubated with equimolar AZI (m1 as the enzyme)” value (shortened to “IC50 of inhibition … (m1 as the enzyme)”) in series [1] stood at 570 nM. For the same molecule, the “IC50 of inhibition of ODC enzyme activity (ODC 0.19 µM), without AZI” value (shortened to “IC50 of inhibition … without AZI”) in series [2] is 160 nM. The results for the Kd in series [3] and in series [4] were 1500 ± 10 nM and 24 ± 0.2 nM, respectively.
In the case of B2, the binding result in series [5] is listed as “binds”.

B3: human antizyme peptide AZ_100-228 (domain or fragment)
chain: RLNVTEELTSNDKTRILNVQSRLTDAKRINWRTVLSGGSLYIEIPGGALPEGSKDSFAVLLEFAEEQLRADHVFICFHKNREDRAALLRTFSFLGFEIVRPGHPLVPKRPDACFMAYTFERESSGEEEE
For the molecule B3, the “IC50 of inhibition … (m1 as the enzyme)” value in series [1] is 620 nM. Moreover, the “IC50 of inhibition … without AZI” value in series [2] turned out to be 210 nM. For the same molecule, the values for the Kd in series [3] and in series [4] were 5300 ± 30 nM and 68 ± 0.7 nM, respectively.

B4: human antizyme peptide AZ_95-135 (domain or fragment)
chain: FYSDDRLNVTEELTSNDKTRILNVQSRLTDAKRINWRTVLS
Regarding B4, in series [1], the “IC50 of inhibition … (m1 as the enzyme)” value was 1590 nM. Besides, the “IC50 of inhibition … without AZI” value in series [2] is 510 nM. Moreover, the dissociation constant (Kd) in series [3] amounted to 10300 ± 70 nM.

B5: human antizyme peptide AZ_95-124 (domain or fragment)
chain: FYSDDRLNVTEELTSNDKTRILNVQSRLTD
For B5, the “IC50 of inhibition … (m1 as the enzyme)” value in series [1] is 1980 nM. For the same molecule, the “IC50 of inhibition … without AZI” value in series [2] came to 650 nM. The Kd in series [3] worked out at 18600 ± 130 nM; in series [4], 280 ± 2 nM.

B6: human antizyme, wild type (natural protein)
chain: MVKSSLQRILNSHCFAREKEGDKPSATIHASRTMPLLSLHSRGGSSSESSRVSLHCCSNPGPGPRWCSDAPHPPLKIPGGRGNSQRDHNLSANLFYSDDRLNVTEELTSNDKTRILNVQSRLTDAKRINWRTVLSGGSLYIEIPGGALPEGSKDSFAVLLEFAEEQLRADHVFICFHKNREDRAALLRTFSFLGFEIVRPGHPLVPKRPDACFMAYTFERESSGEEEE
Consider B6, for which the “IC50 of inhibition … (m1 as the enzyme)” value in series [1] is 500 nM. In addition, in series [2], the “IC50 of inhibition … without AZI” value was 160 nM. The values for the Kd in series [3] and in series [4] were 710 ± 5 nM and 27 ± 0.1 nM, respectively.

B7: human antizyme peptide AZ_95-176 (domain or fragment)
chain: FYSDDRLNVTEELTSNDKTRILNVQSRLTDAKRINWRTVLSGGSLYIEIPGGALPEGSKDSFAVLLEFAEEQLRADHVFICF
On to B7, for which the “IC50 of inhibition … (m1 as the enzyme)” value in series [1] came to 680 nM. In series [2], the “IC50 of inhibition … without AZI” value was 200 nM. Further, the Kd in series [3] stood at 5600 ± 40 nM; in series [4] it was 60 ± 4 nM.

B8: human antizyme peptide AZ_87-124 (domain or fragment)
chain: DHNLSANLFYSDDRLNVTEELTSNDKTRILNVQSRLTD
As to B8, the “IC50 of inhibition … (m1 as the enzyme)” value in series [1] amounted to 1550 nM. Also, in series [2], the “IC50 of inhibition … without AZI” value is 520 nM. For the same molecule, the Kd in series [3] was determined as 12700 ± 280 nM; in series [4], 160 ± 1 nM.

B9: human antizyme peptide AZ_100-176 (domain or fragment)
chain: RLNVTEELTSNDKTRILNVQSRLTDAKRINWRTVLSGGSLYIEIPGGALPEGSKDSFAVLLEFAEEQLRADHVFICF
For the molecule B9, in series [1], the “IC50 of inhibition … (m1 as the enzyme)” value worked out at 1420 nM. For the same molecule, the “IC50 of inhibition … without AZI” value in series [2] was found to be 430 nM. The dissociation constant (Kd) in series [3] is 10800 ± 70 nM.

As usually defined, the Kd is the equilibrium constant for the complex coming apart.
